Where “and” joins values, the source holds several entries; their conditions need not be identical. Identical values can stand only once.
How the values were obtained:
human IL-4 [1] = molecular target: T1, human IL-4 (human, UniProt P05112 25-153, biotinylated in the receptor binding assay and on the Biacore chip); experiment: IL-4 RBA: ELISA, IL-4R/Fc coated, biotinylated IL-4
T1 construct: also called interleukin-4; biotinylated IL-4
T1 sequence (looked up): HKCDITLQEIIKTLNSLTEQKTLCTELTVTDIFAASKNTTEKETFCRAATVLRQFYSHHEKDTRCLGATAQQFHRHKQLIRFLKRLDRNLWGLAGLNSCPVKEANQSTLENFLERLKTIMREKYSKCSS
Source text: (§1) The wells were washed three times with 0.1% (v/v) Tween 20 in PBS, followed by three washes with PBS, before blocking with 2% (w/v) BSA in PBS. […] The reaction was stopped by the addition of HCl and the absorbance read at 450 nm.

human IL-4 [2] = molecular target: T1, human IL-4; experiment: DOM9 RBA (IL-4 RBA)
Source text: as §1

human IL-13 [3] = molecular target: T2, human IL-13 (human, UniProt P35225 35-146, biotinylated on the Biacore chip); experiment: Dom10 RBA (IL-13 sandwich ELISA per paragraph 471)
T2 construct: also called hIL-13; recombinant human IL-13
Experimental: A MAXISORP™ plate (high protein binding ELISA plate, Nunc, Denmark) was coated overnight with 2.5 μg/ml coating antibody (Module Set, Bender MedSystems, Vienna, Austria), then washed once with 0.05% (v/v) Tween 20 in PBS before blocking with 0.5% (w/v) BSA 0.05% (v/v) Tween 20 in PBS. […] The plate was then incubated with TMB substrate (KPL, Gaithersburg, USA), and the reaction was stopped by the addition of HCl and the absorbance read at 450 nm.

human IL-13 [4] = molecular target: T2, human IL-13; experiment: IL-13 Biacore

T2 sequence (P35225 35-146 limits assumed): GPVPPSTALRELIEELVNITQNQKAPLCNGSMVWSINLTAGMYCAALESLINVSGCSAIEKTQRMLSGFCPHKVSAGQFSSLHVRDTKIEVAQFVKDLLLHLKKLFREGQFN

Binder | IC50 (human IL-4 [1]) | IC50 (human IL-4 [2]) [nM] | EC50 (human IL-13 [3]) [nM] | binding result (human IL-13 [4])
DOM9-44 (other, Vk dAb) VL: DIQMTQSPSSLSASVGDRVTITCRASQNINFWLRWYQQKPGKAPTLLIYDASALQSGVPSRFSGSGSGTDFTLTISSLQPEDFATYYCQQDFNPPYTFGQGTKVEIKR | 122 nM |  |  | 
DOM9-112 (other, VH dAb) VH: EVQLLESGGGLVQPGGSLRLSCAASGFTFRNYGMAWVRQAPGKGLEWVSWIDASGTETYYADSVKGRFTISRDNSKNTLYLQMNSLRAEDTAVYYCAKSLGRFDYWGQGTLVTVSS | 3 nM | 3.6 |  | 
DOM9-112-168 (other, VH dAb) VH: EVQLLESGGGLVQPGGSLRLSCAASGFTFRNYGMAWVRQAPGKGLEWVSWIEGGGTETYYADSVKGRFTISRDNSKNTLYLQMNSLRAEDTAVYYCAKSLGRFDYWGQGTLVTVSS | 1.22 nM and 0.64 nM |  |  | 
DOM9-112-210-ASTKGPS-DOM10-224 (bispecific antibody, in-line fusion, from pDOM5) EVQLLESGGGLVQPGGSLRLSCAASGFTFRNFGMGWVRQAPGKGLEWVSWIISSGTETYYADSVKGRFTISRDNSKNTLYLQMNSLRAEDTAVYYCAKSLGRFDYWGQGTLVTVSSASTKGPSDIQMTQSPSSLSASVGDRVTITCRASPNIAVDLAWYQQKPGKAPKLLIRGVSRLQSGVPSRFSGSGSGTDFTLTISSLQPEDFATYYCRQGAMGSYTFGQGTKVEIKR |  | 2.75 | 4580 | 
DOM9-112-210-ASTKGPS-DOM10-213 (bispecific antibody, in-line fusion, from pDOM5) EVQLLESGGGLVQPGGSLRLSCAASGFTFRNFGMGWVRQAPGKGLEWVSWIISSGTETYYADSVKGRFTISRDNSKNTLYLQMNSLRAEDTAVYYCAKSLGRFDYWGQGTLVTVSSASTKGPSDIQMTQSPSSLSASVGDRVTITCRASQAIPWGLNWYQQKPGKAPKLLIYDVSSLQSGVPSRFSGSGSGTDFTLTISSLQPEDFATYYCQQDIHIPMTFGQGTKVEIKR |  | 4.29 | 1150 | 
DOM9-112-210-ASTKGPS-DOM10-236 (bispecific antibody, in-line fusion, from pDOM5) EVQLLESGGGLVQPGGSLRLSCAASGFTFRNFGMGWVRQAPGKGLEWVSWIISSGTETYYADSVKGRFTISRDNSKNTLYLQMNSLRAEDTAVYYCAKSLGRFDYWGQGTLVTVSSASTKGPSEVQLLESGGGLVQPGGSLRLSCAASGFTFPKYDMMWVRQAPGKGLEWVSSIDHLGVNTYYADSVKGRFTISRDNSKNTLYLQMNSLRAEDTAVYYCAKESDWPSFDYWGQGTLVTVSS |  |  |  | binds
DOM9-112-210-ASTKGPS-DOM10-273 (bispecific antibody, in-line fusion, from pDOM5) EVQLLESGGGLVQPGGSLRLSCAASGFTFRNFGMGWVRQAPGKGLEWVSWIISSGTETYYADSVKGRFTISRDNSKNTLYLQMNSLRAEDTAVYYCAKSLGRFDYWGQGTLVTVSSASTKGPSEVQLLESGGGLVQPGGSLRLSCAASGFTFELEEMDWVRQAPGKGLEWVSSISGSGGSTYYADSVKGRFTISRDNSKNTLYLQMNSLRAEDTAVYYCAKAYTGFDYWGQGTLVTVSS |  | 10.5 | 4550 | 
DOM9-112-210-ASTKGPS-DOM10-277 (bispecific antibody, in-line fusion, from pDOM5) EVQLLESGGGLVQPGGSLRLSCAASGFTFRNFGMGWVRQAPGKGLEWVSWIISSGTETYYADSVKGRFTISRDNSKNTLYLQMNSLRAEDTAVYYCAKSLGRFDYWGQGTLVTVSSASTKGPSEVQLLESGGGLVQPGGSLRLSCAASGFTFSSYEMDWVRQAPGKGLEWVSTISADGVTTYYADSVKGRFTISRDNSKNTLYLQMNSLRAEDTAVYYCAKAFDAFDYWGQGTLVTVSS |  | 11.7 | 4380 | 
DOM9-112-210-ASTKGPS-DOM10-416 (bispecific antibody, in-line fusion, from pDOM5) EVQLLESGGGLVQPGGSLRLSCAASGFTFRNFGMGWVRQAPGKGLEWVSWIISSGTETYYADSVKGRFTISRDNSKNTLYLQMNSLRAEDTAVYYCAKSLGRFDYWGQGTLVTVSSASTKGPSEVQLLESGGGLVQPGGSLRLSCAASGFTFKGSEMDWVRQAPGKGLEWVSTISADGRETYYADSVKGRFTISRDNSKNTLYLQMNSLRAEDTAVYYCAKSYTSFDYWGQGTLVTVSS |  | 7.27 | 34400 | 
DOM10-270-TVAAPS-DOM9-155-78 (bispecific antibody, in-line fusion, from pDOM5) DIQMTQSPSSLSASVGDRVTITCRASSVILNELHWYQQKPGKAPKLLISAVSRLQSGVPSRFSGSGSGTDFTLTISSLQPEDFATYYCLQTFWGPYTFGQGTKVEIKRTVAAPSDIQMTQSPSSLSASVGDRVTITCRASRHIGDWLHWYQQKPGKAPKLLIAWASTLDSGVPSRFSGSGSGTDFTLTISSLQPEDFATYYCLQEGWGPPTFGQGTKVEIKR |  | 8.6 | 37.2 | 
DOM10-208-TVAAPS-DOM9-155-78 (bispecific antibody, in-line fusion, from pDOM5) DIQMTQSPSSLSASVGDRVTITCRASSPITDGLAWYQQKPGKAPKLLIDTGSRLQSGVPSRFSGSGSGTDFTLTISSLQPEDFATYYCRQGAMGSYTFGQGTKVEIKRTVAAPSDIQMTQSPSSLSASVGDRVTITCRASRHIGDWLHWYQQKPGKAPKLLIAWASTLDSGVPSRFSGSGSGTDFTLTISSLQPEDFATYYCLQEGWGPPTFGQGTKVEIKR |  | 8.18 | 4240 | 
DOM10-273-ASTKGPS-DOM9-155-78 (bispecific antibody, in-line fusion, from pDOM5) EVQLLESGGGLVQPGGSLRLSCAASGFTFELEEMDWVRQAPGKGLEWVSSISGSGGSTYYADSVKGRFTISRDNSKNTLYLQMNSLRAEDTAVYYCAKAYTGFDYWGQGTLVTVSSASTKGPSDIQMTQSPSSLSASVGDRVTITCRASRHIGDWLHWYQQKPGKAPKLLIAWASTLDSGVPSRFSGSGSGTDFTLTISSLQPEDFATYYCLQEGWGPPTFGQGTKVEIKR |  | 2.25 | 185 | 
DOM10-277-ASTKGPS-DOM9-155-78 (bispecific antibody, in-line fusion, from pDOM5) EVQLLESGGGLVQPGGSLRLSCAASGFTFSSYEMDWVRQAPGKGLEWVSTISADGVTTYYADSVKGRFTISRDNSKNTLYLQMNSLRAEDTAVYYCAKAFDAFDYWGQGTLVTVSSASTKGPSDIQMTQSPSSLSASVGDRVTITCRASRHIGDWLHWYQQKPGKAPKLLIAWASTLDSGVPSRFSGSGSGTDFTLTISSLQPEDFATYYCLQEGWGPPTFGQGTKVEIKR |  | 9.45 | 648 | 
DOM10-416-ASTKGPS-DOM9-155-78 (bispecific antibody, in-line fusion, from pDOM5) EVQLLESGGGLVQPGGSLRLSCAASGFTFKGSEMDWVRQAPGKGLEWVSTISADGRETYYADSVKGRFTISRDNSKNTLYLQMNSLRAEDTAVYYCAKSYTSFDYWGQGTLVTVSSASTKGPSDIQMTQSPSSLSASVGDRVTITCRASRHIGDWLHWYQQKPGKAPKLLIAWASTLDSGVPSRFSGSGSGTDFTLTISSLQPEDFATYYCLQEGWGPPTFGQGTKVEIKR |  | 5.88 | 444 | 
DOM9-112-210-ASTKGPS-DOM10-212 (bispecific antibody, in-line fusion, from pDOM5) EVQLLESGGGLVQPGGSLRLSCAASGFTFRNFGMGWVRQAPGKGLEWVSWIISSGTETYYADSVKGRFTISRDNSKNTLYLQMNSLRAEDTAVYYCAKSLGRFDYWGQGTLVTVSSASTKGPSDIQMTQSPSSLSASVGDRVTITCRASSVILNELHWYQQKPGKAPKLLISAVSRLQSGVPSRFSGSGSGTDFTLTISSLQPEDFATYYCLQTFWGPFTFGQGTKVEIKR |  | 3.21 | 1000 | 
DOM9-112-210-DOM10-270 (bispecific antibody, in-line fusion, from pDOM5) EVQLLESGGGLVQPGGSLRLSCAASGFTFRNFGMGWVRQAPGKGLEWVSWIISSGTETYYADSVKGRFTISRDNSKNTLYLQMNSLRAEDTAVYYCAKSLGRFDYWGQGTLVTVSSASTKGPSDIQMTQSPSSLSASVGDRVTITCRASSVILNELHWYQQKPGKAPKLLISAVSRLQSGVPSRFSGSGSGTDFTLTISSLQPEDFATYYCLQTFWGPYTFGQGTKVEIKR |  | 2.79 | 398 | 
DOM10-213-TVAAPS-DOM9-155-78 (bispecific antibody, in-line fusion, from pDOM5) DIQMTQSPSSLSASVGDRVTITCRASQAIPWGLNWYQQKPGKAPKLLIYDVSSLQSGVPSRFSGSGSGTDFTLTISSLQPEDFATYYCQQDIHIPMTFGQGTKVEIKRTVAAPSDIQMTQSPSSLSASVGDRVTITCRASRHIGDWLHWYQQKPGKAPKLLIAWASTLDSGVPSRFSGSGSGTDFTLTISSLQPEDFATYYCLQEGWGPPTFGQGTKVEIKR |  | 6.91 | 62 | 
DOM10-215-TVAAPS-DOM9-155-78 (bispecific antibody, in-line fusion, from pDOM5) DIQMTQSPSSLSASVGDRVTITCRASQNIFADLNWYQQKPGKAPKLLIYMGSRLQSGVPSRFSGSGSGTDFTLTISSLQPEDFATYYCQQDYKFPLTFGQGTKVEIKRTVAAPSDIQMTQSPSSLSASVGDRVTITCRASRHIGDWLHWYQQKPGKAPKLLIAWASTLDSGVPSRFSGSGSGTDFTLTISSLQPEDFATYYCLQEGWGPPTFGQGTKVEIKR |  | 6.65 | 10.8 | 
DOM10-236-ASTKGPS-DOM9-155-78 (bispecific antibody, in-line fusion, from pDOM5) EVQLLESGGGLVQPGGSLRLSCAASGFTFPKYDMMWVRQAPGKGLEWVSSIDHLGVNTYYADSVKGRFTISRDNSKNTLYLQMNSLRAEDTAVYYCAKESDWPSFDYWGQGTLVTVSSASTKGPSDIQMTQSPSSLSASVGDRVTITCRASRHIGDWLHWYQQKPGKAPKLLIAWASTLDSGVPSRFSGSGSGTDFTLTISSLQPEDFATYYCLQEGWGPPTFGQGTKVEIKR |  | 2.54 | 372 | 
DOM9-155 (other, Vk dAb) VL: DIQMTQSPSSLSASVGDRVTITCRASLDIGDWLHWYQQKPGKAPKLLIGWGSGLQSGVPSRFSGSGSGTDFTLTISSLQPEDFATYYCLQEGLGPPTFGQGTKVEIKR | 100 nM |  |  | 

From patent publication US20090060916A1 (published 2009)
